This data set in a line: Bioactive Agent Release Assay, dextran-TRITC under polymer topcoat on discs (Example 4). The format is physicochemical. To be noted: pEVA/pBMA topcoat coated at 48% relative humidity compared with 10% relative humidity; PBS, 37° C.; FIG. 2. The method, then: Two solutions were prepared in order to provide a coating composition in the form of a two part system. The first solution was an aqueous solution containing the bioactive agent, dextran-TRITC, at a concentration of 15 mg/ml. […] The poly(n-butyl methacrylate) and poly(ethylene-co-vinylacetate) were purified by extraction with organic solvents to remove impurities, e.g., monomer residues. The polymers of the second solution were dissolved in tetrahydrofuran at a concentration of 10 mg/ml.
Fifteen-millimeter diameter stainless steel discs with an overall thickness of two millimeters were fabricated with a nine-millimeter diameter flat pedestal. […] A surface treatment such as Parylene could be applied to the disc or the surface could be left untreated. The discs were weighed on a microbalance. The aqueous bioactive agent solution was applied to the pedestal surface of the discs with a pipette. The water evaporated from the discs and the discs were re-weighed on a microbalance to obtain the amount of the bioactive agent on the disc. The polymer coating solution containing poly(ethylene-co-vinylacetate) and poly(n-butyl methacrylate) was applied to the entire surface of the disc, covering the dextran. […]
Except as otherwise provided herein, each coated disc was placed in an amber vial with 4 mls of PBS. […] The concentration of bioactive agent in each PBS sample was determined using UV spectroscopy. […]

Regarding “tetramethylrhodamine isothiocyanate-Dextran [dextran-TRITC]”, the “release rate of the bioactive agent from the composite coating” value is on record as “faster rate”.

The values are drawn from patent publication US20020188037A1, “Method and system for providing bioactive agent release coating” (priority 1999, published 2002).
